Paper PMC8796303 (ACS Central Science, 2021)

Target: SARS-CoV-2 spike protein (wild type) (SARS-CoV-2, ancestral (wild type, …, UniProt P0DTC2))
Test: lateral flow strip assay

B1: REGN10933 (receptor binding domain binding antibody) (antibody, V domains shown)
VH: QVQLVESGGGLVKPGGSLRLSCAASGFTFSDYYMSWIRQAPGKGLEWVSYITYSGSTIYYADSVKGRFTISRDNAKSSLYLQMNSLRAEDTAVYYCARDRGTTMVPFDYWGQGTLVTVSS
VL: DIQMTQSPSSLSASVGDRVTITCQASQDITNYLNWYQQKPGKAPKLLIYAASNLETGVPSRFSGSGSGTDFTFTISGLQPEDIATYYCQQYDNLPLTFGGGTKVEIK
  binding result: binds
